Paper PMC9472474

Biological target: T1, GST-RBM45 (6xHis-GST) (human, UniProt Q8IUH3 1-476)
T1 sequence: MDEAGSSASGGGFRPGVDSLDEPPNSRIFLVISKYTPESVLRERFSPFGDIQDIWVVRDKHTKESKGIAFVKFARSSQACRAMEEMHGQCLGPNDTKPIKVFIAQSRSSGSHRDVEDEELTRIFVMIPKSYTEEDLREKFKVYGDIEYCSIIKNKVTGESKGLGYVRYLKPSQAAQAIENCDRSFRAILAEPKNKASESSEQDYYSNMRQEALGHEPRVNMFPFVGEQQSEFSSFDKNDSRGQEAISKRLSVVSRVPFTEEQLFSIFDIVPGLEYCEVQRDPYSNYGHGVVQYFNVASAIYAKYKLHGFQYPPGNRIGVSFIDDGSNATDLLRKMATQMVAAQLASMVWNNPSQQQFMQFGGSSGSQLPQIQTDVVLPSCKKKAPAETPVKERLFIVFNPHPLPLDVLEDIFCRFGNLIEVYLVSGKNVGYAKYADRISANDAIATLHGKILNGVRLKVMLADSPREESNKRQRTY
Assay: fluorescence polarization

UUCUUCUGUGGACUGUG (ssRNA, m6A at A12) [FAM m6A ssRNA] showed a Kd of 462 ± 73 nM.
